Test results as given in patent US11629193B2, “EGFR binding molecules” (F-STAR BETA LIMITED, priority 2016, dated 2023).
Entries after “also recorded” stand apart in the source; their conditions may differ.

Assays:
HER3 = biological target: T1, HER3 (Homo sapiens, UniProt P21860); test: ELISA for specific binding within the HER receptor family; conditions: 1 μM, antigen coated at 1 μg/ml
T1 construct: purchased Sino Biological 10201-H08H
Experimental: Antigens including EGFR (produced in house), HER2 His Tag (Sino Biological, 10004-H08H), HER3 His Tag (Sino Biological, 10201-H08H) and HER4 His Tag (Sino Biological, 10363-H08H) were biotinylated using the Lightning-Link™ Biotin kit (Innova Biosciences, 704-0030) following the supplier's protocol. The biotinylated antigens were coated in different wells on MaxiSorp™ plate (Nunc) at 1 μg/ml in PBS overnight at 4° C. and excess unbound antigens were washed off with PBS. The antigen-coated plate was blocked with 1% TWEEN® in PBS (PBST) for 1 hour at room temperature. After removing PBST, the anti-EGFR Fcabs (1 μM) and relevant positive and IgG negative antibody controls (1 μM) in 0.1% PBST were incubated for 1 hour to bind the coated antigens followed by washing. The bound Fcabs or antibodies were detected by Protein A-HRP (ThermoFisher 101023) or anti-mouse IgG-horseradish peroxidase (HRP) (Sigma A9044) for the HER4 positive control. Tetramethylbenzidine (TMB) (eBioscience 00-4201-56) was used as the substrate to interact with HRP enzyme for colorimetric detection. 1 M Sulphuric acid was added to stop the enzyme-substrate reaction. The plate was read at an absorbance of 450 nm subtracted by 630 nm as background.

NCI-H596 cells = test: Cell proliferation, NCI-H596 cells stimulated with EGF and HGF; format: cell-based; conditions: NCI-H596, 10-1000 nM, 2 ng/ml EGF and 12 ng/ml HGF, 3 days
Experimental: NCI-H596 (ATCC HTB-178) is a lung adenosquamous cancer cell line that engages both the EGF and HGF signalling pathways and was used to investigate the ability of mAb^2 molecules to block proliferation. The same method was used as in the U87MG assay described above, except that the NCI-H596 cells were stimulated with both EGF and HGF ligands. One day before the treatment, the level of FBS used in the media was reduced from 10% to 1%. The next day treatments were added at various concentrations (10-1000 nM) in the presence of 2 ng/ml EGF (R&D systems, 236-EG) and 12 ng/ml HGF (PeproTech, 100-39) and incubated for 3 days at 37° C. Controls of HGF+EGF, EGF only, HGF only and no ligand stimulation were also included.

[1] = test system: phosphorylation of MAPK and Akt; test: Western blot of downstream signalling in U87MG cells; format: cell-based, human; conditions: 200 nM (200+200 nM for combination), HGF and EGF present
Experimental: (§1) Overnight cultures of the glioblastoma cell line U87MG (ATCC HTB-14) were moved from a medium with 10% FBS to a low serum medium with 0.1% FBS to optimise sensitivity to ligand stimulation. The cells were incubated overnight. […] Controls without antibody treatment were included, with and without growth factor stimulation. The treated cells were lysed using lysis buffer (10 mM Tris® pH7.5, 150 mM NaCl, 1 mM EDTA) comprising 1:100 protease inhibitor cocktail (Calbiochem, 539131) and 1:100 Phosphatase inhibitor cocktail (Calbiochem, 524625) and the lysates collected for analysis.
(§2) Lysate samples were subjected to standard western blotting analysis using a 4-12% Bis-Tris® protein gel (ThermoFisher, NP0322BOX) and transferred to a nitrocellulose membrane (ThermoFisher, IB301001). The membrane was blocked with 5% Marvel milk/TBST and then probed for phospho-c-Met using a rabbit monoclonal antibody specific for c-Met phosphorylated at Tyr1234/1235 (Cell Signaling, 3077), phospho-EGFR using a mouse monoclonal antibody specific for EGFR phosphorylated at Tyr1068 (Cell Signaling, 2236), phospho-MAPK using a mouse monoclonal antibody specific for p44/42 MAPK (ERK1/2) phosphorylated at Thr202/Tyr204 (Cell Signaling, 9106), and phospho-Akt using a rabbit monoclonal antibody specific for Akt phosphorylated at Ser473 (Cell Signaling, 9271). […]

HGF = biological target: T2, HGF (Homo sapiens, UniProt P14210); test: Free HGF in culture media of U87MG cells (HGF Human ELISA Kit); format: cell-based; conditions: 30 nM, 4 days, compared to controls
T2 construct: examined in U87MG cells that secrete HGF; endogenous in cells; host or cells: U87MG
T2 sequence (P14210 32-728): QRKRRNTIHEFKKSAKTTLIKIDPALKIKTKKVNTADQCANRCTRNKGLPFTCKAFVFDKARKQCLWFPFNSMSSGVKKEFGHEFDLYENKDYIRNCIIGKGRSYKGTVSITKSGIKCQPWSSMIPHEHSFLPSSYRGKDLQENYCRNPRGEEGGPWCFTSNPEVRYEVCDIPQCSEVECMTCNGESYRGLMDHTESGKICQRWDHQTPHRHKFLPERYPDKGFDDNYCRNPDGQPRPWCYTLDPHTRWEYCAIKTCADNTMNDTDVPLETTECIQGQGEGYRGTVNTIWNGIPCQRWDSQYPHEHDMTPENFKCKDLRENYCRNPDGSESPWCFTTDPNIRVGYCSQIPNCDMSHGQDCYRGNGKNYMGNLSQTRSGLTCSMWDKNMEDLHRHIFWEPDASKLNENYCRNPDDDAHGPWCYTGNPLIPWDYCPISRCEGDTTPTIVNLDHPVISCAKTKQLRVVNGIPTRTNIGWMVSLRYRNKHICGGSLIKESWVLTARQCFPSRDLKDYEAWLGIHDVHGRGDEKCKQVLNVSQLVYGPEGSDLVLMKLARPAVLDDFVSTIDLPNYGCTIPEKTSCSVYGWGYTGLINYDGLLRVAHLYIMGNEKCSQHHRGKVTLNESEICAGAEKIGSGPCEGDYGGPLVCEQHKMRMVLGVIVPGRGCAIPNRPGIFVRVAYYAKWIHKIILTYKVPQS
Experimental: It was hypothesised that internalisation of HGF by anti-EGFR/HGF mAb^2 leads to reduced level of HGF in the system. To test this hypothesis, the change in level of free HGF caused by incubation with anti-EGFR/HGF mAb^2 was examined in U87MG cells that secrete HGF. U87MG cultures were incubated with different treatments at 30 nM for 4 days at 37° C. […] On day 4, the media from each cell culture were collected for HGF level analysis. HGF concentration was measured using HGF Human ELISA Kit (ThermoFisher, KAC2211) following the manufacturer's protocol. Using monoclonal anti-HGF antibodies, the free HGF in media was detected (free HGF was defined as HGF in the media which was bound by detection antibodies).

NCI-H1975 cells = test: Cell proliferation, NCI-H1975 cells stimulated with HGF; format: cell-based
Experimental: NCI-H1975 (ATCC CRL-5908) is a non-small cell lung cancer (NSCLC) cell line which expresses constitutively active mutated EGFR L858R and EGFR T790M (Kobayashi et al 2005). These mutations are acquired secondary mutations known to confer resistance to EGFR tyrosine kinase inhibitor (TKI) therapies in NSCLC patients. The NCI-H1975 cell line also expresses c-Met. […] The same method was used as in the U87MG assay described above, except that the NCI-H1975 cells were stimulated with HGF. One day before the treatment, the medium used was changed from containing 10% FBS to containing no serum. Treatments were added at various concentrations (0.003-300 nM) in the presence of 80 ng/ml HGF and incubated for 3 days at 37° C.

KP4 cells = test: Cell proliferation, KP4 cells (WST-1); format: cell-based; conditions: KP4, 0.003-300 nM, 3 days
Experimental: KP4 (Riken RCB1005) is a pancreatic ductal cell carcinoma which has autocrine production of HGF. […] After 3 days, cells were analysed using cell proliferation reagent WST-1 (Roche) to determine the number of viable cells as described in the manufacturer's protocol. The stable tetrazolium salt WST-1 is cleaved to a soluble formazan by the glycolytic production of NAD(P)H in viable cells. The amount of formazan dye formed is quantitated at absorbances 450 nm and 630 nm.

[2] = test system: phosphorylation of c-Met and EGFR; test: Western blot of receptor phosphorylation in U87MG cells; format: cell-based, human; conditions: 200 nM, 20 min
Experimental: as §1, §2

Molecule | binding to HER3 (HER3) | inhibition of cell proliferation induced by HGF and EGF (NCI-H596 cells) | block of phosphorylation of MAPK and Akt [1] | concentration of free HGF in the media (HGF) | reduction of cell proliferation induced by HGF (NCI-H1975 cells; NCI-H1975, 0.003-300 nM, 80 ng/ml HGF, 3 days) | reduction of cell proliferation induced by HGF (NCI-H1975 cells; NCI-H1975, antibodies 300 nM with and without erlotinib (2 μM)) | reduction in cell proliferation (WST-1) (KP4 cells) | block of phosphorylation of c-Met by HGF [2]
MM121: antibody MM121 (Merrimack), positive control for HER3 (antibody, chains of the INN, looked up) heavy: EVQLLESGGGLVQPGGSLRLSCAASGFTFSHYVMAWVRQAPGKGLEWVSSISSSGGWTLYADSVKGRFTISRDNSKNTLYLQMNSLRAEDTAVYYCTRGLKMATIFDYWGQGTLVTVSSASTKGPSVFPLAPCSRSTSESTAALGCLVKDYFPEPVTVSWNSGALTSGVHTFPAVLQSSGLYSLSSVVTVPSSNFGTQTYTCNVDHKPSNTKVDKTVERKCCVECPPCPAPPVAGPSVFLFPPKPKDTLMISRTPEVTCVVVDVSHEDPEVQFNWYVDGVEVHNAKTKPREEQFNSTFRVVSVLTVVHQDWLNGKEYKCKVSNKGLPAPIEKTISKTKGQPREPQVYTLPPSREEMTKNQVSLTCLVKGFYPSDIAVEWESNGQPENNYKTTPPMLDSDGSFFLYSKLTVDKSRWQQGNVFSCSVMHEALHNHYTQKSLSLSPG light: QSALTQPASVSGSPGQSITISCTGTSSDVGSYNVVSWYQQHPGKAPKLIIYEVSQRPSGVSNRFSGSKSGNTASLTISGLQTEDEADYYCCSYAGSSIFVIFGGGTKVTVLGQPKAAPSVTLFPPSSEELQANKATLVCLVSDFYPGAVTVAWKADGSPVKVGVETTKPSKQSNNKYAASSYLSLTPEQWKSHRSYSCRVTHEGSTVEKTVAPAECS | bound to their corresponding antigens | – | – | – | – | – | – | –
ficlatuzumab (antibody, V domains shown, FI VH domain; FI VL domain) VH: QVQLVQPGAEVKKPGTSVKLSCKASGYTFTTYWMHWVRQAPGQGLEWIGEINPTNGHTNYNQKFQGRATLTVDKSTSTAYMELSSLRSEDTAVYYCARNYVGSIFDYWGQGTLLTVSS VL: DIVMTQSPDSLAMSLGERVTLNCKASENVVSYVSWYQQKPGQSPKLLIYGASNRESGVPDRFSGSGSATDFTLTISSVQAEDVADYHCGQSYNYPYTFGQGTKLEIKR | – | unable to block stimulation when both ligands were present | unable to block the phosphorylation of MAPK and Akt | significant decrease in the concentration of free HGF in the media | did not | No effect | concentration-dependent reduction in cell proliferation; also recorded: inhibited cell proliferation, but to a lesser extent | able to block the phosphorylation of c-Met by HGF
